The target in the assay is V3A3E3 PA conjugated to carboxytetramethylrhodamine. Put plainly: FRET or BRET. In general terms: Bioluminescence resonance energy transfer reports proximity on the nanometre scale.

Consider “V3A3E3 PA conjugated to fluorescein isothiocyanate (peptide)”, for which the FRET ratio lay in the range of 0.6 to 0.7.

The values above are taken from publication PMC8049983.
